Numbering of substitutions follows the chain as printed. In names and notes the source's numbering stands.
T1: FANCL URD-RING fragment (FANCL^UR) (human, UniProt Q9NW38 109-375)
T1 sequence: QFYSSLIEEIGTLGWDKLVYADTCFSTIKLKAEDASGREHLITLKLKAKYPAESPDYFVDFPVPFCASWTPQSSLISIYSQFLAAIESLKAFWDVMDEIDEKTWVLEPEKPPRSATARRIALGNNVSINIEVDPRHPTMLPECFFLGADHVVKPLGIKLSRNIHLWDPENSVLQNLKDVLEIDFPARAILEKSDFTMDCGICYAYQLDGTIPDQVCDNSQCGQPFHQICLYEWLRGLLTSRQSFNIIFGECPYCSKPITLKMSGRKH

B1: Ube2T (enzyme)
chain: MQRASRLKRELHMLATEPPPGITCWQDKDQMDDLRAQILGGANTPYEKGVFKLEVIIPERYPFEPPQIRFLTPIYHPNIDSAGRICLDVLKLPPKGAWRPSLNIATVLTSIQLLMSEPNPDDPLMADISSEFKYNKPAFLKNARQWTEKHARQKQKADEEEMLDNLPEAGDSRVHNSTQKRKASQLVGIEKKFHPDV
B2: FANCL RING (FANCL^R) (domain or fragment)
chain: EIDFPARAILEKSDFTMDCGICYAYQLDGTIPDQVCDNSQCGQPFHQICLYEWLRGLLTSRQSFNIIFGECPYCSKPITLKMSGRKH
B3: Ube2T D32A+D33A+L92A (enzyme)
chain: B1 chain with D32A, D33A, L92A
B4: Ube2T K91A (enzyme)
chain: B1 chain with K91A
B5: Ube2T K95A (enzyme)
chain: B1 chain with K95A
B6: Ube2T R84S (enzyme)
chain: B1 chain with R84S
B7: Ube2T R84S+K91A+K95A (enzyme)
chain: B1 chain with R84S, K91A, K95A
B8: Ube2T T23R+W25Q (enzyme)
chain: B1 chain with T23R, W25Q

Legend:
[1] = target: Xenopus laevis FANCD2 (xFANCD2) (Xenopus laevis); experiment: MST
[2] = target: T1, FANCL URD-RING fragment (FANCL^UR); experiment: ITC
Ube2T D32A+D33A+L92A = target: B3; experiment: ITC
Ube2T = target: B1; experiment: ITC
Ube2T T23R+W25Q = target: B8; experiment: ITC

Molecule: Ube2Tv3 in the Ube2T^1-152 background (E54R+P93G+P94G) (from UniProt Q9NPD8 1-152) (domain or fragment)
- Kd [1]: 238000 nM

Molecule: Ube2T^1-152 (from UniProt Q9NPD8 1-152) (domain or fragment)
- Kd [1]: 320000 nM

Molecule: B1
- Kd [2]: ~119 nM

Molecule: B2
- Kd (Ube2T D32A+D33A+L92A): ~253 nM
- Kd (Ube2T): ~253 nM
- Kd (Ube2T T23R+W25Q): ~253 nM

Molecule: B3
- Kd [2]: ~119 nM

Molecule: B4
- binding result [2]: binds

Molecule: B5
- binding result [2]: binds

Molecule: B6
- binding result [2]: binds

Molecule: B7
- binding result [2]: binds

Molecule: B8
- Kd [2]: 200 nM

Reference: article PMC7035956 (Nature chemical biology, 2019)
